Measurements taken from patent publication US20160356794A1 (Merck Sharp & Dohme, published 2016).
No end group written: not given here.

Assays:
[1] = target: h-Tau 441 (human Tau isoform 2-441, Accession No. NP 005901.2) (human, UniProt P10636 2-758); experiment: SPR, BIAcore CM3 sensor chip, immobilized h-Tau 441
Protocol: The binding affinity (Kd) of the 10H8 and 19G10 mAbs was determined by BIAcore CM3 sensor chip (Biacore, Piscataway, N.J.) using immobilized h-Tau 441 as the capture protein.

PPAPKTPPSSGEPPK = target: T1, PPAPKTPPSSGEPPK (human); experiment: RepliTope peptide microarray, immobilized 15-mer, fluorescent secondary antibody
T1 construct: Synthetic peptide covalently immobilized on glass through a hydrophilic linker (RepliTope microarray)
T1 peptide: PPAPKTPPSSGEPPK
Excerpt: (§1) Epitope mapping of clones 10H8 and 19G10 was completed using JPT Peptide Technologies' RepliTope™ peptide microarrays. This technology consists in using purified synthetic peptides chemoselectively and covalently immobilized to the glass surface. An optimized hydrophilic linker moiety is inserted between the glass surface and the antigen derived peptide sequence to avoid false negatives caused by sterical hindrance. The peptides used spanned Tau mid region protein sequence of 166 amino acids between amino acid 104 and amino acid 269 (Tau 166). Peptides of 15 amino acids in length that extended downstream either 1 or 2 amino acids at a time were used in this experiment.
(§2) The assay was performed using an automated TECAN HS4X00 microarray processing station. Microarrays were washed, incubated with blocking buffer for 60 min at 30° C., and subsequently with clones […] and 19G10 diluted in blocking buffer for 120 min at 30° C. Microarrays were washed and incubated with secondary antibody diluted in blocking buffer for 45 min at 30° C. and then dried. The quantification was performed using high resolution fluorescence scanner. The resulting images were analyzed and quantified using spot-recognition software GenePix (Molecular Devices). For each spot, the mean signal intensity was extracted and expressed as arbitraty florescence units.

APKTPPSSGEPPKSG = target: T2, APKTPPSSGEPPKSG (human); experiment: as above
T2 construct: Synthetic peptide covalently immobilized on glass through a hydrophilic linker (RepliTope microarray)
T2 peptide: APKTPPSSGEPPKSG
Excerpt: as §1, §2

KTPPSSGEPPKSGDR = target: T3, KTPPSSGEPPKSGDR (human); experiment: as above
T3 construct: Synthetic peptide covalently immobilized on glass through a hydrophilic linker (RepliTope microarray)
T3 peptide: KTPPSSGEPPKSGDR
Excerpt: as §1, §2

PPSSGEPPKSGDRSG = target: T4, PPSSGEPPKSGDRSG (human); experiment: as above
T4 construct: Synthetic peptide covalently immobilized on glass through a hydrophilic linker (RepliTope microarray)
T4 peptide: PPSSGEPPKSGDRSG
Excerpt: as §1, §2

SSGEPPKSGDRSGYS [2] = target: T5, SSGEPPKSGDRSGYS (human, also: covalently immobilized on glass through a hydrophilic linker); experiment: as above
T5 construct: Synthetic peptide covalently immobilized on glass through a hydrophilic linker (RepliTope microarray)
T5 peptide: SSGEPPKSGDRSGYS
Excerpt: as §1, §2

GEPPKSGDRSGYSSP [3] = target: T6, GEPPKSGDRSGYSSP (human); experiment: as above
T6 construct: Synthetic peptide covalently immobilized on glass through a hydrophilic linker (RepliTope microarray)
T6 peptide: GEPPKSGDRSGYSSP
Excerpt: as §1, §2

PPKSGDRSGYSSPGS [4] = target: T7, PPKSGDRSGYSSPGS (human); experiment: as above
T7 construct: Synthetic peptide covalently immobilized on glass through a hydrophilic linker (RepliTope microarray)
T7 peptide: PPKSGDRSGYSSPGS
Excerpt: as §1, §2

KSGDRSGYSSPGSPG [5] = target: T8, KSGDRSGYSSPGSPG (human); experiment: as above
T8 construct: Synthetic peptide covalently immobilized on glass through a hydrophilic linker (RepliTope microarray)
T8 peptide: KSGDRSGYSSPGSPG
Excerpt: as §1, §2

GDRSGYSSPGSPGTP = target: T9, GDRSGYSSPGSPGTP (human); experiment: as above
T9 construct: Synthetic peptide covalently immobilized on glass through a hydrophilic linker (RepliTope microarray)
T9 peptide: GDRSGYSSPGSPGTP
Excerpt: as §1, §2

SSGEPPKSGDRSGYS [6] = target: T10, SSGEPPKSGDRSGYS (human, also: covalently immobilized on glass through a hydrophilic linker); experiment: as above
T10 construct: Synthetic peptide covalently immobilized on glass through a hydrophilic linker (RepliTope microarray)
T10 peptide: SSGEPPKSGDRSGYS
Excerpt: as §1, §2

SGEPPKSGDRSGYSS = target: T11, SGEPPKSGDRSGYSS (human, also: covalently immobilized on glass through a hydrophilic linker); experiment: as above
T11 construct: Synthetic peptide covalently immobilized on glass through a hydrophilic linker (RepliTope microarray)
T11 peptide: SGEPPKSGDRSGYSS
Excerpt: as §1, §2

GEPPKSGDRSGYSSP [7] = target: T12, GEPPKSGDRSGYSSP (human); experiment: as above
T12 construct: Synthetic peptide covalently immobilized on glass through a hydrophilic linker (RepliTope microarray)
T12 peptide: GEPPKSGDRSGYSSP
Excerpt: as §1, §2

EPPKSGDRSGYSSPG = target: T13, EPPKSGDRSGYSSPG (human); experiment: as above
T13 construct: Synthetic peptide covalently immobilized on glass through a hydrophilic linker (RepliTope microarray)
T13 peptide: EPPKSGDRSGYSSPG
Excerpt: as §1, §2

PPKSGDRSGYSSPGS [8] = target: T14, PPKSGDRSGYSSPGS (human); experiment: as above
T14 construct: Synthetic peptide covalently immobilized on glass through a hydrophilic linker (RepliTope microarray)
T14 peptide: PPKSGDRSGYSSPGS
Excerpt: as §1, §2

PKSGDRSGYSSPGSP = target: T15, PKSGDRSGYSSPGSP (human); experiment: as above
T15 construct: Synthetic peptide covalently immobilized on glass through a hydrophilic linker (RepliTope microarray)
T15 peptide: PKSGDRSGYSSPGSP
Excerpt: as §1, §2

KSGDRSGYSSPGSPG [9] = target: T16, KSGDRSGYSSPGSPG (human); experiment: as above
T16 construct: Synthetic peptide covalently immobilized on glass through a hydrophilic linker (RepliTope microarray)
T16 peptide: KSGDRSGYSSPGSPG
Excerpt: as §1, §2

SGDRSGYSSPGSPGT = target: T17, SGDRSGYSSPGSPGT (human, also: covalently immobilized on glass through a hydrophilic linker); experiment: as above
T17 construct: Synthetic peptide covalently immobilized on glass through a hydrophilic linker (RepliTope microarray)
T17 peptide: SGDRSGYSSPGSPGT
Excerpt: as §1, §2

h-Tau 441 (human Tau isoform 2-441, Accession No. NP 005901.2), sequence (P10636 other isoform, or with tags, fused parts or gaps limits assumed): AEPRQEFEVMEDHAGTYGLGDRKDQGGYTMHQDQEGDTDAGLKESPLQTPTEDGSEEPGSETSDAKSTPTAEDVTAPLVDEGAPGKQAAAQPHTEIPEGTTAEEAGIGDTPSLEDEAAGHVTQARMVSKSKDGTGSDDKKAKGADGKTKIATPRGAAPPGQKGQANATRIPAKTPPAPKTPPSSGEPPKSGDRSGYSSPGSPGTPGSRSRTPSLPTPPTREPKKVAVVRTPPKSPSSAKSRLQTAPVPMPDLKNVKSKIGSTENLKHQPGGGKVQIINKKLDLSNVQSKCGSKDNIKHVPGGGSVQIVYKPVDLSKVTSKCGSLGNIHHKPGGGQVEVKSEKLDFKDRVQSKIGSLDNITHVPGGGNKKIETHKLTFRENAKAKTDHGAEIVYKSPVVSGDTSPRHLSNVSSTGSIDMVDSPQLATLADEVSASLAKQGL

- Kd [1]: 6.3 nM
- koff [1]: 0.000176 s⁻¹
- kon [1]: 25900 M⁻¹ s⁻¹
- Fluorescent Intensity (PPAPKTPPSSGEPPK): 892 arbitrary fluorescence units
- Fluorescent Intensity (APKTPPSSGEPPKSG): 761 arbitrary fluorescence units
- Fluorescent Intensity (KTPPSSGEPPKSGDR): 55800 arbitrary fluorescence units
- Fluorescent Intensity (PPSSGEPPKSGDRSG): 62000 arbitrary fluorescence units
- Fluorescent Intensity (SSGEPPKSGDRSGYS [2]): 62700 arbitrary fluorescence units
- Fluorescent Intensity (GEPPKSGDRSGYSSP [3]): 58000 arbitrary fluorescence units
- Fluorescent Intensity (PPKSGDRSGYSSPGS [4]): 53400 arbitrary fluorescence units
- Fluorescent Intensity (KSGDRSGYSSPGSPG [5]): 1810 arbitrary fluorescence units
- Fluorescent Intensity (GDRSGYSSPGSPGTP): 588 arbitrary fluorescence units
- Fluorescent Intensity (SSGEPPKSGDRSGYS [6]): 55400 arbitrary fluorescence units
- Fluorescent Intensity (SGEPPKSGDRSGYSS): 59700 arbitrary fluorescence units
- Fluorescent Intensity (GEPPKSGDRSGYSSP [7]): 58900 arbitrary fluorescence units
- Fluorescent Intensity (EPPKSGDRSGYSSPG): 63100 arbitrary fluorescence units
- Fluorescent Intensity (PPKSGDRSGYSSPGS [8]): 58700 arbitrary fluorescence units
- Fluorescent Intensity (PKSGDRSGYSSPGSP): 49600 arbitrary fluorescence units
- Fluorescent Intensity (KSGDRSGYSSPGSPG [9]): 1550 arbitrary fluorescence units
- Fluorescent Intensity (SGDRSGYSSPGSPGT): 619 arbitrary fluorescence units
B1: monoclonal antibody 19G10 (antibody, mouse IgG2b, V domains shown)
VH: QVTLKESGPGILQPSQTLSLTCSFSGFSLSTSGMGVGWIRQPSGKGLEWLAHIWWDDDKYYNAVLKSRLTISKDTSKNQVFLKIASVDTADTATYYCARIGIDGPYAMDYWGQGTSVTVSS
VL: DIVMSQSPSSLAVSIGEKVTMSCKSSQSLLYSNNQKNYLAWYQRKPGQSPKLLIYWASTRESGVPDRFTGSGSGTDFTLTITSVKAEDLAVYYCQQYYSYPLWTFGGGTKLEIK
notes: also called mAb 19G10; 19G10 mAb
